Reference: the MegaScale stability set (Tsuboyama et al. 2023)

B1: 5KPH (parent)
chain: EEKRQVKQVAKEKLLEQSPNSKVQVRRVQKQGNTIRVELELRTNGKKENYTVEVERQGNTWTVKRITRT
B2: EEHEE_rd3_0130 (parent)
chain: TKIIVNGKTFTAPTEEEAQKIAEKLAKKAGLTVHKKNGTFELK

Variants of: B1
Experiment: folding stability dG (cDNA display proteolysis); higher = more stable
Conditions: PBS, room temperature

Folding stability dG [kcal/mol], by site and new letter:
L14: E 1.7 | K 2.18 | H 1.79 | V 3.65 | S 2.17 | P 1.78 | N 1.92 | I 3.75 | A 3.13 | Y 1.95 | W 2.29 | R 2.08 | F 2.92 | T 2.26 | C 3.29 | M 4.02 | D 1.74 | Q 1.9 | G 2.07
K7: E 4.5 | V 4.86 | N 3.39 | R 3.85 | C 4.11 | T 4.58 | M 4.8 | I 4.82 | Y 3.86 | L 4.49 | Q 4.19 | D 3.14 | G 4.38 | S 4.63 | F 4.07 | H 3.57 | P 2.66
E1: R 3.25 | K 3.85 | L 3.06 | S 3.56 | P 3.19 | V 3.38 | G 3.49 | I 2.88 | T 3.46 | D 3.52 | W 2.91 | H 3.61 | C 3.69 | Y 2.92 | F 3 | A 3.75 | N 3.37 | Q 3.64 | M 3.33
V6: C 3.31 | W 3.61 | M 3.03 | E 2.28 | A 4.84 | K 2.05 | H 2.57 | Q 2.78 | F 2.99 | L 3.46 | Y 3.13 | I 4.24 | S 3.37 | R 1.97 | N 1.92 | T 2.66 | D 1.95 | P 3.55 | G 3.48
A10: I 4.24 | L 3.55 | Y 1.96 | C 3.26 | K 1.92 | P 1.77 | G 2.6 | W 2.27 | T 2.76 | F 2.24 | D 1.8 | H 1.69 | S 2.92 | Q 1.91 | V 3.78 | M 2.73 | E 1.78 | R 2.02 | N 1.88
Q8: M 3.59 | S 3.55 | P 2.29 | A 3.76 | W 2.56 | N 3.57 | Y 2.78 | H 3.62 | C 3.49 | I 3.76 | E 3.74 | F 3.03 | V 3.31 | R 3.92 | D 3.67 | L 3.51 | T 3.51 | G 3.2 | K 4.16
V9: D 1.82 | F 3.82 | K 3.39 | W 2.74 | M 3.83 | L 4.16 | H 2.88 | S 2.4 | R 3.07 | C 3.28 | G 1.81 | Y 3.38 | N 2.18 | E 2.33 | Q 3.26 | I 4.22 | P 1.9 | T 3.15 | A 3.39
L15: A 2.99 | C 3.13 | E 3.1 | I 3.02 | F 3.03 | N 2.5 | K 3.36 | Q 3.42 | P 1.87 | G 2.53 | H 2.98 | D 2.07 | M 3.7
K3: G 3.73 | T 4.31 | Y 4.74 | Q 4.19 | C 4.21 | A 4.28 | V 4.72 | E 4.84 | H 4.2 | F 4.65 | S 4.17 | D 4.41 | R 4.07 | W 4.88 | M 4.84 | P 3.01 | N 4.25
K13: W 3.48 | N 2.71 | P 2.43 | A 4.53 | D 1.86 | S 3.66 | L 3.42 | F 3.99 | T 3.78 | V 4.12 | E 2.79 | G 3.55 | C 3.62 | H 3.57 | R 3.61 | Q 3.24 | Y 4.07 | M 3.7 | I 4.04
K11: D 1.94 | W 3.24 | T 3.86 | Y 3.32 | L 3.99 | R 3.94 | C 3.75 | A 3.8 | G 2.74 | M 4.37 | F 3.33 | V 4.49 | I 4.55 | S 3.8 | Q 3.45 | N 2.38 | H 2.85 | P 2.01 | E 3.44
E2: D 3.9 | N 3.28 | L 3.66 | M 3.58 | F 3.16 | T 3.74 | R 3.19 | V 3.73 | Y 3.08 | I 3.93 | A 3.63 | C 3.69 | H 3.5 | W 4.05 | P 2.94 | G 3.24 | S 3.47 | Q 3.9 | K 2.91
Q5: M 4.07 | C 3.54 | T 3.93 | P 2.86 | G 3.64 | I 3.95 | D 3.73 | H 3.77 | R 4.19 | E 3.88 | V 3.73 | A 3.93 | N 3.54 | S 3.84 | L 3.9 | W 3.62 | F 3.83 | Y 3.64 | K 3.86
R4: G 3.38 | K 3.9 | E 4.22 | Y 3.64 | P 2.55 | Q 3.81 | V 3.34 | A 3.86 | C 3.57 | H 3.79 | N 3.72 | W 3.79 | L 3.54 | F 3.64 | D 3.98 | T 3.69 | S 3.72 | I 3.04 | M 3.84
E12: V 3.21 | K 3.83 | Y 2.83 | P 1.8 | C 3.52 | M 3.67 | D 4.17 | I 3.56 | H 3.53 | R 3.89 | S 3.79 | T 3.6 | N 3.73 | F 2.78 | L 3.47 | G 3.34 | Q 4.02 | W 2.92 | A 4.15

Variants of: B2
Experiment: as above
Conditions: PBS, room temperature

Folding stability dG [kcal/mol] of substitutions, site by site:
E41: F 1.45 | M 0.498 | K -0.978 | Y 1.85 | L 0.903 | V 1.09 | D -0.202 | H 0.56 | W 1.45 | I 1.48 | C 1.19 | P 0.028 | R -0.631 | T -0.004 | Q 0.186
F40: Q 0.083 | R -0.061 | S 0.04 | Y 0.608 | V 0.436 | T -0.035 | W 0.271
K43: I 1.33 | P -0.2 | Y 1.15 | N 0.532 | C 1.76 | Q 0.615 | A 0.626 | W 1.16 | L 1.18 | T 1.07 | M 0.985 | D 0.338 | V 1.3 | F 1.13 | H 0.826 | S 0.91 | E 0.545 | G 0.476 | R 1.07
L42: R -0.081 | F -0.203 | D 0.274 | I 0.782 | P 0.076 | K 0.146 | G 0.249 | T 0.203 | A 0.214 | V 0.79 | S 0.186 | N 0.089 | Q 0.021 | M 0 | W 0.069 | E 0.201 | H 0.251 | Y 0.019
